Assay results taken from patent US12072338B2, “Pharmaceutical peptides for the treatment of inflammatory diseases” (PROTAGONISTS LTD., priority 2007, dated 2024).

Legend:
Eotaxin 2 = target: T1, Eotaxin 2 (Homo sapiens, UniProt O00175); assay: Micro-array analysis of chemokine binding peptides: Eotaxin 2
T1 construct: purchased 300-33
T1 sequence (O00175 27-119): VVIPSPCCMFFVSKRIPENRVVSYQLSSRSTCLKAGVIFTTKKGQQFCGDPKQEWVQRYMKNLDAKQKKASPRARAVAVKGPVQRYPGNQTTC
Method: (§1) (1) Printing: Chemokine (CK) solution (in water) was serially diluted with Print Reagent (GenTel BioSurfaces USA) to final concentrations of 50 μg and 25 μg/ml. BSA/BSA-Biotin control solutions (in water) were diluted with Print Reagent to 100 μg/ml. Amplified stock of M13 phage control (M13KEgIII Cloning Vector, New England Biolabs, Cat.No.E8101S) was stored in Tris Buffered Saline (TBS; pH7.5, 4° C.) and diluted with Print Reagent to the working titre (10^8 pfu/μl). An automated spotting robot (16 pin print tool, 0.4 mm head; BioRobotics, UK) was used to print the CK/BSA control/M13 control, 5 repeats per sample (CK 25 μg/ml and 50 μg/ml; BSA 100 μg/ml; M13 20 μl), on PATH Protein Microarray Slides (GenTel, Prod.No. 2-1005/-1025) at […], and 50-70% relative humidity. Printed micro-array slides were stored at Room Temperature (RT) or 4° C. for at least 24 h before use.
(§2) (2) Blocking: Block Buffer (500 μl/partition; PATHblock, GenTel, Prod.No. 2-1014) was applied to the slide for 1 hour at room temp (RT). After removal of Block Buffer, the slide was air dried for 25 minutes;
(§3) (3) Phage Presented Peptide Binding: Amplified recombinant phage stock was stored in TBS and diluted with Wash Buffer to working titer (10^7 pfu/μl). Recombinant phage suspension (300 μl) was applied per partition and incubated at RT for 1 hour with gentle agitation.
(§4) (4) First Washing: The slides were washed twice with Wash Buffer 300 μl/partition).
(§5) (5) Primary Antibody (Ab) Labeling: The slides were incubated with the Primary Ab (1 mg/ml diluted ×2500 (Wash Reagent), 300 μl; Mouse Anti-M13 monoclonal Ab; Amersham Biosciences, UK; Product Code 27-9420-01) for 45 minutes at RT.
(§6) (6) Second Washing: The slides were washed twice with Wash Buffer (300 μl/partition).
(§7) (7) Secondary Ab Labeling: The slides were incubated with Secondary Ab (1.5 mg/ml diluted ×5000 (Wash Reagent), 300 μl; Cy3-conjugated AffiniPure Goat Anti-Mouse IgG; Jackson ImmunoReserch Labs, USA; Product Code 115-165-062).
(§8) (8) Third Washing: The slides were washed twice with Wash Buffer (300 μl/partition).
(§9) (9) Rinse: the slides were rinsed twice with Rinse Buffer (PATHrinse, GenTel, Prod.No. 2-1018) then dried well.
(§10) (10) Scanning: The peptide-bound, labeled slide was scanned (Laser Intensity 80%, Gain 80%, Resolution 10 μm) with a ScanArray Life Scanner (Packard BioChip Technologies, USA).
(§11) (11) Analysis: Quantitative analysis of micro-array was performed by the SpotReader program of Niles Scientific (USA) and presented as Relative Fluorescence (RF) as a function of CK concentration. Micro-array readout (Cy3 fluorescence) was quantified to determine the relative binding affinities of a CBP for the CKs and by inference, the specificity of the CBP for binding to a CK.

SDF1-α = target: T2, SDF1-α (Homo sapiens, UniProt P48061); assay: Micro-array analysis of chemokine binding peptides: SDF1-α
T2 construct: purchased 300-28a
T2 sequence (P48061 22-89 limits assumed): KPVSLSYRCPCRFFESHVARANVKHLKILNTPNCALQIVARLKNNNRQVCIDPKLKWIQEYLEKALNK
Method: as §1, §2, §3, §4, §5, §6, §7, §8, §9, §10, §11

TECK = target: T3, TECK (Homo sapiens, UniProt O15444); assay: Micro-array analysis of chemokine binding peptides: TECK
T3 construct: purchased 300-45
T3 sequence (O15444 24-150): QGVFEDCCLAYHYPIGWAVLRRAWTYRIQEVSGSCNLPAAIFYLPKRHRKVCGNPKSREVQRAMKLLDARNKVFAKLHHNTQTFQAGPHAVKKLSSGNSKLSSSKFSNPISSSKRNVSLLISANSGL
Method: as §1, §2, §3, §4, §5, §6, §7, §8, §9, §10, §11

IL-8 = assay: Micro-array analysis of chemokine binding peptides: IL-8
IL-8, sequence (P10145 28-99 limits assumed): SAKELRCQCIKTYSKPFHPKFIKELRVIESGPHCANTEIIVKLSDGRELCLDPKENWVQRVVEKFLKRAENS
Method: as §1, §2, §3, §4, §5, §6, §7, §8, §9, §10, §11

I-TAC = target: T4, I-TAC (Homo sapiens, UniProt O14625); assay: Micro-array analysis of chemokine binding peptides: I-TAC
T4 construct: purchased 300-46
T4 sequence (O14625 22-94): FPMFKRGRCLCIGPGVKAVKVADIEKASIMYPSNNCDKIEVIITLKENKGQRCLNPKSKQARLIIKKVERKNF
Method: as §1, §2, §3, §4, §5, §6, §7, §8, §9, §10, §11

I-309 = target: T5, I-309 (Homo sapiens, UniProt P22362); assay: Micro-array analysis of chemokine binding peptides: I-309
T5 construct: purchased 300-37
T5 sequence (P22362 24-96): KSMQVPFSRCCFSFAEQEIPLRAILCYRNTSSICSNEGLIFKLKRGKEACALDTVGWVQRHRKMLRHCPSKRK
Method: as §1, §2, §3, §4, §5, §6, §7, §8, §9, §10, §11

Exodus-2 = target: T6, Exodus-2 (Homo sapiens, UniProt O00585); assay: Micro-array analysis of chemokine binding peptides: Exodus-2
T6 construct: purchased 300-35
T6 sequence (O00585 24-134): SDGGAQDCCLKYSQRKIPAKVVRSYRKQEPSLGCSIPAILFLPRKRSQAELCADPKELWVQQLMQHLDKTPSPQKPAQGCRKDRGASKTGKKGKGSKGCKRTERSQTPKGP
Method: as §1, §2, §3, §4, §5, §6, §7, §8, §9, §10, §11

SDF1-β = target: T7, SDF1-β (Homo sapiens, UniProt P48061); assay: Micro-array analysis of chemokine binding peptides: SDF1-β
T7 construct: purchased 300-28b
T7 sequence (P48061 22-93): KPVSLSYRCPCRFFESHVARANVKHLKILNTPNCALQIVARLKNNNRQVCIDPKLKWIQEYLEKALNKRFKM
Method: as §1, §2, §3, §4, §5, §6, §7, §8, §9, §10, §11

MCP-1 = target: T8, MCP-1 (Homo sapiens, UniProt P13500); assay: Micro-array analysis of chemokine binding peptides: MCP-1; conditions: for binding to MCP-1 with relatively high affinity (Relative Fluorescence Units): limit = start of the upper 75% of that peptide's response range
T8 construct: purchased 300-04
T8 sequence (P13500 24-99): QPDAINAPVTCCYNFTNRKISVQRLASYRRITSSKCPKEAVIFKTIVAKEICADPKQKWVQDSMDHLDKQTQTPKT
Method: as §1, §2, §3, §4, §5, §6, §7, §8, §9, §10, §11

BCA-1 = target: T9, BCA-1 (Homo sapiens, UniProt O43927); assay: Micro-array analysis of chemokine binding peptides: BCA-1
T9 construct: purchased 300-47
T9 sequence (O43927 23-109): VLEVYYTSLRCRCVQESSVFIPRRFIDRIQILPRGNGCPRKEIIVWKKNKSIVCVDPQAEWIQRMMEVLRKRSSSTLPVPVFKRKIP
Method: as §1, §2, §3, §4, §5, §6, §7, §8, §9, §10, §11

MCP-2 = target: T10, MCP-2 (Homo sapiens, UniProt P80075); assay: Micro-array analysis of chemokine binding peptides: MCP-2; conditions: limit = start of the upper 75% of that peptide's response range
T10 construct: purchased 300-15
T10 sequence (P80075 24-99): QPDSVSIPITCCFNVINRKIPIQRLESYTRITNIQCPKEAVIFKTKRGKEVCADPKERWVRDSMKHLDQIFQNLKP
Method: as §1, §2, §3, §4, §5, §6, §7, §8, §9, §10, §11

Mig = target: T11, Mig (Homo sapiens, UniProt Q07325); assay: Micro-array analysis of chemokine binding peptides: Mig
T11 construct: purchased 300-26
T11 sequence (Q07325 23-125): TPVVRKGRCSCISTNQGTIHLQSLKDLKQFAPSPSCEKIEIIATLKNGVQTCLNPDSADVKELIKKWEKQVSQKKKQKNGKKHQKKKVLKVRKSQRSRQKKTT
Method: as §1, §2, §3, §4, §5, §6, §7, §8, §9, §10, §11

Lymphotactin = target: T12, Lymphotactin (Homo sapiens, UniProt P47992); assay: Micro-array analysis of chemokine binding peptides: Lymphotactin
T12 construct: purchased 300-20
T12 sequence (P47992 22-114): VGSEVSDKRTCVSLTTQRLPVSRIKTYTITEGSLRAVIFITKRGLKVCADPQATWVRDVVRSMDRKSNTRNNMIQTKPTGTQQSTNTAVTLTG
Method: as §1, §2, §3, §4, §5, §6, §7, §8, §9, §10, §11

Fractalkine = target: T13, Fractalkine (Homo sapiens, UniProt P78423); assay: Micro-array analysis of chemokine binding peptides: Fractalkine
T13 construct: purchased 300-31
T13 sequence (P78423 25-100 limits assumed): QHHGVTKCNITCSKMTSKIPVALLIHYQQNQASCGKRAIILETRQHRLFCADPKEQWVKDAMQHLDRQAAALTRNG
Method: as §1, §2, §3, §4, §5, §6, §7, §8, §9, §10, §11

MCP-4 = target: T14, MCP-4 (Homo sapiens, UniProt Q99616); assay: Micro-array analysis of chemokine binding peptides: MCP-4; conditions: for binding to MCP-4 with relatively high affinity (Relative Fluorescence Units): limit = start of the upper 75% of that peptide's response range
T14 construct: purchased 300-24
T14 sequence (Q99616 17-98): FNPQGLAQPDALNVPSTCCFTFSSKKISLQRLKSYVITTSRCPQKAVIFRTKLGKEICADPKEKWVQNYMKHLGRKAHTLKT
Method: as §1, §2, §3, §4, §5, §6, §7, §8, §9, §10, §11

RANTES = target: T15, RANTES (Homo sapiens, UniProt P13501); assay: Micro-array analysis of chemokine binding peptides: RANTES
T15 construct: purchased 300-06
T15 sequence (P13501 24-91): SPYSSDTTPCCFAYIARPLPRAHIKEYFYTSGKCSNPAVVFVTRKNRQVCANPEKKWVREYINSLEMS
Method: as §1, §2, §3, §4, §5, §6, §7, §8, §9, §10, §11

Eotaxin = target: T16, Eotaxin (Homo sapiens, UniProt P51671); assay: Micro-array analysis of chemokine binding peptides: Eotaxin
T16 construct: purchased 300-21
T16 sequence (P51671 24-97): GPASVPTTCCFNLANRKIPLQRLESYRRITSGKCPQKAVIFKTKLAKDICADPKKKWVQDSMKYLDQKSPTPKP
Method: as §1, §2, §3, §4, §5, §6, §7, §8, §9, §10, §11

Eotaxin 3 = target: T17, Eotaxin 3 (Homo sapiens, UniProt Q9Y258); assay: Micro-array analysis of chemokine binding peptides: Eotaxin 3
T17 construct: purchased 300-48
T17 sequence (Q9Y258 24-94): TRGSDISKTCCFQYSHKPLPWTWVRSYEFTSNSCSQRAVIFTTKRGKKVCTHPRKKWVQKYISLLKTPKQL
Method: as §1, §2, §3, §4, §5, §6, §7, §8, §9, §10, §11

GRO-β = target: T18, GRO-β (Homo sapiens, UniProt P19875); assay: Micro-array analysis of chemokine binding peptides: GRO-β
T18 construct: purchased 300-39
T18 sequence (P19875 35-107): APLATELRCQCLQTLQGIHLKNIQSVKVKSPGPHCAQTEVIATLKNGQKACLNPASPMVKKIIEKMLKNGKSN
Method: as §1, §2, §3, §4, §5, §6, §7, §8, §9, §10, §11

IP-10 = target: T19, IP-10 (Homo sapiens, UniProt P02778); assay: Micro-array analysis of chemokine binding peptides: IP-10
T19 construct: purchased 300-12
T19 sequence (P02778 22-98): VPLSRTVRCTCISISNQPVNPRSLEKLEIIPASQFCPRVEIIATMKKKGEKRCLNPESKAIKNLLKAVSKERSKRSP
Method: as §1, §2, §3, §4, §5, §6, §7, §8, §9, §10, §11

[1] = limit = start of the upper 75% of that peptide's response range

Substance	binding to SDF1-α, stated in words (SDF1-α)	binding to TECK, stated in words (TECK)	binding to Exodus-2, stated in words (Exodus-2)	binding to SDF1-β, stated in words (SDF1-β)	binding to MCP-1 with relatively high affinity (Relative Fluorescence Units) (MCP-1)	binding to BCA-1, stated in words (BCA-1)	binding to MCP-2 with relatively high affinity (Relative Fluorescence Units) (MCP-2)	binding to Lymphotactin, stated in words (Lymphotactin)	binding to Fractalkine, stated in words (Fractalkine)	binding to MCP-4 with relatively high affinity (Relative Fluorescence Units) (MCP-4)	binding to IL-8, stated in words (IL-8)	binding to I-TAC, stated in words (I-TAC)	binding to GRO-β, stated in words (GRO-β)	binding to Mig, stated in words (Mig)	binding to Eotaxin, stated in words (Eotaxin)	binding to Eotaxin 3, stated in words (Eotaxin 3)	binding to IP-10, stated in words (IP-10)	other results
DYDYG (listed as Homo sapiens) [Ph-p31]	bound	bound	bound	bound	> 15,000 RFU	bound	> 15,000 RFU	bound	bound	> 15,000 RFU	–	–	–	–	–	–	–	binding to Eotaxin 2 with relatively high affinity (Relative Fluorescence Units) (Eotaxin 2; [1]): > 15,000 RFU; binding to IL-8 with relatively high affinity (Relative Fluorescence Units) (IL-8; [1]): > 15,000 RFU; binding to I-TAC with relatively high affinity (Relative Fluorescence Units) (I-TAC; [1]): > 15,000 RFU; binding to I-309 with relatively high affinity (Relative Fluorescence Units) (I-309; [1]): > 15,000 RFU; binding to Mig with relatively high affinity (Relative Fluorescence Units) (Mig; [1]): > 15,000 RFU; binding to RANTES with relatively high affinity (Relative Fluorescence Units) (RANTES; [1]): > 15,000 RFU; binding to Eotaxin with relatively high affinity (Relative Fluorescence Units) (Eotaxin; [1]): > 15,000 RFU; binding to Eotaxin 3 with relatively high affinity (Relative Fluorescence Units) (Eotaxin 3; [1]): > 15,000 RFU
HYTCSSHFP [Ph-p17]	–	bound	–	–	–	–	–	bound	–	–	bound	bound	bound	bound	bound	bound	–	binding to MCP-1, stated in words (MCP-1): bound; binding to MCP-4, stated in words (MCP-4): bound
TKCOKE (TKCQKE; listed as Homo sapiens) [Ph-p20]	–	bound	bound	–	> 15,000 RFU	bound	> 15,000 RFU	bound	bound	> 15,000 RFU	bound	–	bound	bound	bound	bound	bound	binding to RANTES, stated in words (RANTES): bound
WVFGAAACK [Ph-p8.6]	bound	bound	bound	bound	> 15,000 RFU	bound	> 15,000 RFU	bound	–	> 15,000 RFU	–	bound	–	bound	bound	bound	bound	binding to Eotaxin 2, stated in words (Eotaxin 2): bound; binding to I-309, stated in words (I-309): bound
